Source: patent publication US20170247475A1 (Boehringer Ingelheim, published 2017)
Where a chain is given by its changes, count along the chain named.

B1: VEGFBII08E06 (VHH)
VHH: EVQLVESGGGLVQPGGSLRLSCAASGSIVRSDVMGWYRQAPGKQRELVAFIRSLGSTYYAGSVKGRFTISRDDAANTVYLQMNNLKPEDTAVYYCNARFSGESYWGQGTPVTVSS
B2: VEGFBII12C04 (VHH)
VHH: B1 VHH with D73N
B3: VEGFBII09D05 (VHH)
VHH: EVQLVESGGGLVQPGDSLRLSCAASGLSFSRYGMGWFRQAPGKEREFVIAISEYDNVYTADSVRGRFTISRDNSKSTVYLQMNSLKSEDTAVYYCAASPTILLSTDEWYKYWGRGTQVTVSS
B4: VEGFBII11C11 (VHH)
VHH: EVQLVESGGGLVQAGGSLMLSCAASGRALSSYAIGWFRQAPGREREFVARISWSGANTYYADSVKGRFTISRGNAKNTVYLQMNSLKPEDTAAYYCAAQTTSKYDNYDARAYGYWGQGTQVTVSS
B5: VEGFBII09A09 (VHH)
VHH: EVQLVESGGGLVQPGGSLRLSCVASGIRFMSMAWYRQAPGKHRELVARISSEGTTAYVDSVKGRFTISRDNSKNTVYLQMNSLKAEDTAVYYCNTFSSRPNPWGAGTTVTVSS
B6: VEGFBII08E07 (VHH)
VHH: EVQLVESGGGLAQAGGSLRLSCTTSGLTFSSYYMGWFRQAPGKEREFVATISWNKISTIYTDSVKGRFTVSRDNNKNTVYLQMNSLKPEDTAVYYCAADASRPTLRIPQYWGQGTQVTVSS
B7: VEGFBII11G09 (VHH)
VHH: EVQLVESGGGLVQAGGSLRLSCAASTSIYSITVMAWFRQAPGKEREFVAAITWSAPTTYSADSVKGRFTISRDNAKNTVYLQMNSLKPEDSAIYYCAADRFKGRSIVTRSDYRYWGQGTQVTVSS
B8: VEGFBII11F10 (VHH)
VHH: B7 VHH with T57S, T58S, S60Y, M83V
B9: VEGFBII07A06 (VHH)
VHH: B7 VHH with A24V, T32S, E46A, S60Y, M83T
B10: VEGFBII07A03 (VHH)
VHH: B7 VHH with R45S, T57S, T58S, S60Y, R113K
B11: VEGFBII04B08 (VHH)
VHH: EVQLVESGGGLVQPGGSLRLSCAASGSAVGDITVAWYRQAPGIQRQLVATITPSGYTYYWDFVKGRFTISRDNSKNIVYLQMNSLKPEDTAAYYCNTQFYWGQGTQVTVSS
B12: VEGFBII08F07 (VHH)
VHH: EVQLVESGGGLVQAGGSLRLSCAVSGSTFGLYAMGWFRQAPGREREFLSAITWSAGDTQYADSVKGRFTISRDNARNTVNLQMNGLKPEDTAVYYCAGRQWGGTYYYHGSYAYWGQGTQVTVSS
B13: VEGFBII12G04 (VHH)
VHH: B12 VHH with A14S, G16D, S27N, L48V, Y113W
B14: VEGFBII09F05 (VHH)
VHH: EVQLVESGGGLVQAGGSLRLSCAASGRTFSTDDVGWFRQAPGKEREFVAVIRWSTGGTYTSDSVKGRFTLSRDNAKNTMYLQMNSLKPEDTAVYYCAARSRPLGAGAWYTGETRYNYWGQGTQVTVSS
B15: VEGFBII16C03 (VHH)
VHH: B14 VHH with G8E, T113N, R114Y
B16: VEGFBII09A12 (VHH)
VHH: B14 VHH with K65A, N116D, Y117S

Target: T1, recombinant human VEGF165 (human, UniProt P15692-4 27-191)
T1 construct: also called hVEGF165; rhVEGF165
Test: ELISA screen, periplasmic extract on coated hVEGF165
Description: Wells are blocked with a casein solution (1%). After addition of typically a 10-fold dilution of the periplasmic extracts, VHH binding is detected using a mouse anti-myc (Roche) and an anti-mouse-HRP conjugate (DAKO). Clones showing ELISA signals of >3-fold above background are considered as VEGF binding VHHs.

T1 sequence (P15692 other isoform, or with tags, fused parts or gaps limits assumed): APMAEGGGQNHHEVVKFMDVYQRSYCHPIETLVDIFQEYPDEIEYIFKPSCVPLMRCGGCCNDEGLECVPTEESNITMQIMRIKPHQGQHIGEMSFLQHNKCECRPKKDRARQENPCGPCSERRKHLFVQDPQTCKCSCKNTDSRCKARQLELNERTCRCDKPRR

| binding result | Binder |
| --- | --- |
| binds | B1 |
| binds | B2 |
| binds | B3 |
| binds | B4 |
| binds | B5 |
| binds | B6 |
| binds | B7 |
| binds | B8 |
| binds | B9 |
| binds | B10 |
| binds | B11 |
| binds | B12 |
| binds | B13 |
| binds | B14 |
| binds | B15 |
| binds | B16 |
